# In paper PMC9482650, “Quantitative fragmentomics allow affinity mapping of interactomes” (Nature Communications, 2022):
# T1: FRMPD1, Q5SYB0
# T1 sequence (Q5SYB0 52-145, limits assumed, looked up): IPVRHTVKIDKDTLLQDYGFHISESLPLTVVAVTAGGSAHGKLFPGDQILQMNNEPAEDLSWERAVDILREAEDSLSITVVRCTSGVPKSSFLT
# T2: SNTG2, Q9NY99
# T2 sequence (Q9NY99 68-166, limits assumed, looked up): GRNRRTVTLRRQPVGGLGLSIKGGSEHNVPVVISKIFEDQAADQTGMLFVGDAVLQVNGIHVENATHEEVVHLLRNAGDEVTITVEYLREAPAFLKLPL
# T3: DVL3, Q92997
# T3 sequence (Q92997 244-331, limits assumed, looked up): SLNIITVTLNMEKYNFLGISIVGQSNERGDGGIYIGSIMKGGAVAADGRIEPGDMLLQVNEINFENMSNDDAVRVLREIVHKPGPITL
# T4: TJP3_3, O95049
# T4 sequence (O95049 375-456, limits assumed, looked up): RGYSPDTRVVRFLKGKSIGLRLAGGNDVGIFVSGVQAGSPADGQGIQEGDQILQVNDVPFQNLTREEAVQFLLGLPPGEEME
# T5: HTRA3, P83110
# T5 sequence (P83110 354-453, limits assumed, looked up): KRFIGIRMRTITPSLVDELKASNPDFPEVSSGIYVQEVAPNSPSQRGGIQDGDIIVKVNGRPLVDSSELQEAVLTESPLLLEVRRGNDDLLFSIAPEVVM
# T6: PDZD7_3, Q9H5P4
# T6 sequence (Q9H5P4 857-944, limits assumed, looked up): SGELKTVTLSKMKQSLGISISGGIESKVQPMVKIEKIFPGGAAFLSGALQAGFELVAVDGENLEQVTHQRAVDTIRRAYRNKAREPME
# T7: TX1BP3, O14907
# T7 sequence (O14907 10-122, limits assumed, looked up): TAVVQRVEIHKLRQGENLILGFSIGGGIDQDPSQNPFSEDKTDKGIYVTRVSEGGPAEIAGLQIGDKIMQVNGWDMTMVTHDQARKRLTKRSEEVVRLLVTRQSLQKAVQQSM
# T8: LIN7C, Q9NUP9
# T8 sequence (Q9NUP9 88-185, limits assumed, looked up): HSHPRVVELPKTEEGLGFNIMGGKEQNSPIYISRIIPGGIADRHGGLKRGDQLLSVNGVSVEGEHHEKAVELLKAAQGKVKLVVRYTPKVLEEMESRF
# T9: SNTA1, Q13424
# T9 sequence (Q13424 82-180, limits assumed, looked up): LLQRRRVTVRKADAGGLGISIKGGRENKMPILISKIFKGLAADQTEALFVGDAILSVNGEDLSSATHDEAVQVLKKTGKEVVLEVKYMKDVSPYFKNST
# T10: APBA3_1, O96018
# T10 sequence (O96018 389-490, limits assumed, looked up): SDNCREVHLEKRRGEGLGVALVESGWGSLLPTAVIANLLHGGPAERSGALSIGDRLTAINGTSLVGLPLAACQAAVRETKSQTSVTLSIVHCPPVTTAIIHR
# T11: RHPN1, Q8TCX5
# T11 sequence (Q8TCX5 508-602, limits assumed, looked up): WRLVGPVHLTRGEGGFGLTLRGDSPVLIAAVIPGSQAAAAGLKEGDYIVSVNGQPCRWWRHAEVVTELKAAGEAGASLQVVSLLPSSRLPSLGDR
# T12: PTPN13_1, Q12923
# T12 sequence (Q12923 1088-1188, limits assumed, looked up): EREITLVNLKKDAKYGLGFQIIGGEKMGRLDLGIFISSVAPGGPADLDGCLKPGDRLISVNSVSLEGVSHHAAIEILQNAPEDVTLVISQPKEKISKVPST
# B1: VAC14, Q08AM6 (peptide)
# chain: GDHLDRRVVL
# B2: NDE1, Q9NXR1;Q9NXR1-2 (peptide)
# chain: KSTTRSSSSC
# Molecular target: MAST1, Q9Y2H9
# Assay: holdup assay
# Set-up: key: below the threshold = too weak to quantify, mostly under pKd 3.1 to 4
# Details: plain residues with an end cap or a label only (N-terminal biotin on a linker: ado-ado)
# Chain of MAST1, Q9Y2H9 (Q9Y2H9 962-1065): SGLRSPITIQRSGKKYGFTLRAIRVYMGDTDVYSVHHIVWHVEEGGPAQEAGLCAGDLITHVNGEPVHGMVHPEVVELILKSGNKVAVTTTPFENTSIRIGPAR
row,pKd,Binder
1,4.17,B1

# Molecular target: T1, FRMPD1, Q5SYB0
# Assay: holdup assay
# Set-up: key: below the threshold = too weak to quantify, mostly under pKd 3.1 to 4
# Details: plain residues with an end cap or a label only (N-terminal biotin on a linker: ado-ado)
row,pKd,Binder
1,below the threshold,B2
2,below the threshold,B1

# Molecular target: FRMPD2_2, Q68DX3
# Assay: holdup assay
# Set-up: key: below the threshold = too weak to quantify, mostly under pKd 3.1 to 4
# Details: plain residues with an end cap or a label only (N-terminal biotin on a linker: ado-ado)
# Chain of FRMPD2_2, Q68DX3 (Q68DX3 944-1038): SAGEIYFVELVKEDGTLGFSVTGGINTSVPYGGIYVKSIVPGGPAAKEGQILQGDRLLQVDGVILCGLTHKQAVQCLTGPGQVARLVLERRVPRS
row,pKd,Binder
1,below the threshold,B2
2,below the threshold,B1

# Molecular target: T2, SNTG2, Q9NY99
# Assay: holdup assay
# Set-up: key: below the threshold = too weak to quantify, mostly under pKd 3.1 to 4
# Details: plain residues with an end cap or a label only (N-terminal biotin on a linker: ado-ado)
row,pKd,Binder
1,below the threshold,B2
2,below the threshold,B1

# Molecular target: T3, DVL3, Q92997
# Assay: holdup assay
# Set-up: key: below the threshold = too weak to quantify, mostly under pKd 3.1 to 4
# Details: plain residues with an end cap or a label only (N-terminal biotin on a linker: ado-ado)
row,pKd,Binder
1,below the threshold,B2
2,below the threshold,B1

# Molecular target: T4, TJP3_3, O95049
# Assay: holdup assay
# Set-up: key: below the threshold = too weak to quantify, mostly under pKd 3.1 to 4
# Details: plain residues with an end cap or a label only (N-terminal biotin on a linker: ado-ado)
row,pKd,Binder
1,below the threshold,B2
2,below the threshold,B1

# Molecular target: DLG2_3, Q15700
# Assay: holdup assay
# Set-up: key: below the threshold = too weak to quantify, mostly under pKd 3.1 to 4
# Details: plain residues with an end cap or a label only (N-terminal biotin on a linker: ado-ado)
row,pKd,Binder
1,below the threshold,B1

# Molecular target: T5, HTRA3, P83110
# Assay: holdup assay
# Set-up: key: below the threshold = too weak to quantify, mostly under pKd 3.1 to 4
# Details: plain residues with an end cap or a label only (N-terminal biotin on a linker: ado-ado)
row,pKd,Binder
1,below the threshold,B1

# Molecular target: FRMPD3, Q5JV73
# Assay: holdup assay
# Set-up: key: below the threshold = too weak to quantify, mostly under pKd 3.1 to 4
# Details: plain residues with an end cap or a label only (N-terminal biotin on a linker: ado-ado)
# Chain of FRMPD3, Q5JV73 (Q5JV73 12-100): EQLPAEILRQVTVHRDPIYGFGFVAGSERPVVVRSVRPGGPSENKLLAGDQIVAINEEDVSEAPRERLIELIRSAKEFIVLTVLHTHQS
row,pKd,Binder
1,below the threshold,B2
2,below the threshold,B1

# Molecular target: T6, PDZD7_3, Q9H5P4
# Assay: holdup assay
# Set-up: key: below the threshold = too weak to quantify, mostly under pKd 3.1 to 4
# Details: plain residues with an end cap or a label only (N-terminal biotin on a linker: ado-ado)
row,pKd,Binder
1,3.69,B1

# Molecular target: T7, TX1BP3, O14907
# Assay: holdup assay
# Set-up: key: below the threshold = too weak to quantify, mostly under pKd 3.1 to 4
# Details: plain residues with an end cap or a label only (N-terminal biotin on a linker: ado-ado)
row,pKd,Binder
1,3.93,B2
2,3.71,B1

# Molecular target: PDZRN4_1, Q6ZMN7
# Assay: holdup assay
# Set-up: key: below the threshold = too weak to quantify, mostly under pKd 3.1 to 4
# Details: plain residues with an end cap or a label only (N-terminal biotin on a linker: ado-ado)
# Chain of PDZRN4_1, Q6ZMN7 (Q6ZMN7 213-318): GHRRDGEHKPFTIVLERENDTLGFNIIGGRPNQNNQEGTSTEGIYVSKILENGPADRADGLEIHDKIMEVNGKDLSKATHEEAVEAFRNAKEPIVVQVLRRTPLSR
row,pKd,Binder
1,below the threshold,B2
2,below the threshold,B1

# Molecular target: T8, LIN7C, Q9NUP9
# Assay: holdup assay
# Set-up: key: below the threshold = too weak to quantify, mostly under pKd 3.1 to 4
# Details: plain residues with an end cap or a label only (N-terminal biotin on a linker: ado-ado)
row,pKd,Binder
1,4.04,B1

# Molecular target: ARHGEF12, Q9NZN5-2
# Assay: holdup assay
# Set-up: key: below the threshold = too weak to quantify, mostly under pKd 3.1 to 4
# Details: plain residues with an end cap or a label only (N-terminal biotin on a linker: ado-ado)
# Chain of ARHGEF12, Q9NZN5-2 (Q9NZN5 other isoform, or with tags, fused parts or gaps): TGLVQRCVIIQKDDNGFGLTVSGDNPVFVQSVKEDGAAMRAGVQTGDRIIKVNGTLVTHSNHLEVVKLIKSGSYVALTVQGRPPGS
row,pKd,Binder
1,4.62,B2
2,3.61,B1

# Molecular target: GRIP2_3, Q9C0E4
# Assay: holdup assay
# Set-up: key: below the threshold = too weak to quantify, mostly under pKd 3.1 to 4
# Details: plain residues with an end cap or a label only (N-terminal biotin on a linker: ado-ado)
# Chain of GRIP2_3, Q9C0E4 (Q9C0E4 238-339): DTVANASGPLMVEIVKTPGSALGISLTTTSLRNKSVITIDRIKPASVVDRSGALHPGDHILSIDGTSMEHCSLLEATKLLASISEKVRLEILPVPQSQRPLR
row,pKd,Binder
1,below the threshold,B2
2,below the threshold,B1

# Molecular target: GORASP1, Q9BQQ3
# Assay: holdup assay
# Set-up: key: below the threshold = too weak to quantify, mostly under pKd 3.1 to 4
# Details: plain residues with an end cap or a label only (N-terminal biotin on a linker: ado-ado)
# Chain of GORASP1, Q9BQQ3 (Q9BQQ3 1-208): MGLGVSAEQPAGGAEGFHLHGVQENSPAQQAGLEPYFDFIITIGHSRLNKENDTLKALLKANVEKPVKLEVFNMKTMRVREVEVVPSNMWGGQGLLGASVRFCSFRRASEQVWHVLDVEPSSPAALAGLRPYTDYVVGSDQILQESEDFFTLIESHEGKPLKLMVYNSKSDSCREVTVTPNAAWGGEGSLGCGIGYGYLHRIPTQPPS
row,pKd,Binder
1,below the threshold,B2
2,3.77,B1

# Molecular target: T9, SNTA1, Q13424
# Assay: holdup assay
# Set-up: key: below the threshold = too weak to quantify, mostly under pKd 3.1 to 4
# Details: plain residues with an end cap or a label only (N-terminal biotin on a linker: ado-ado)
row,pKd,Binder
1,below the threshold,B2
2,below the threshold,B1

# Molecular target: FRMPD2_1, Q68DX3
# Assay: holdup assay
# Set-up: key: below the threshold = too weak to quantify, mostly under pKd 3.1 to 4
# Details: plain residues with an end cap or a label only (N-terminal biotin on a linker: ado-ado)
# Chain of FRMPD2_1, Q68DX3 (Q68DX3 770-861): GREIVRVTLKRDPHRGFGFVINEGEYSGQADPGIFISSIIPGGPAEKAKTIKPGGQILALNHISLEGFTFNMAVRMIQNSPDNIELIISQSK
row,pKd,Binder
1,below the threshold,B2
2,3.62,B1

# Molecular target: T10, APBA3_1, O96018
# Assay: holdup assay
# Set-up: key: below the threshold = too weak to quantify, mostly under pKd 3.1 to 4
# Details: plain residues with an end cap or a label only (N-terminal biotin on a linker: ado-ado)
row,pKd,Binder
1,below the threshold,B2
2,below the threshold,B1

# Molecular target: Inadl_4, Q8NI35
# Assay: holdup assay
# Set-up: key: below the threshold = too weak to quantify, mostly under pKd 3.1 to 4
# Details: plain residues with an end cap or a label only (N-terminal biotin on a linker: ado-ado)
# Chain of Inadl_4, Q8NI35 (Q8NI35 547-651): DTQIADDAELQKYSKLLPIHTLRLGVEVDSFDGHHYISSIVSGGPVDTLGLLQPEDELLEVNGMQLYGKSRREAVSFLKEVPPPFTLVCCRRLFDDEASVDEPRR
row,pKd,Binder
1,below the threshold,B2
2,below the threshold,B1

# Molecular target: T11, RHPN1, Q8TCX5
# Assay: holdup assay
# Set-up: key: below the threshold = too weak to quantify, mostly under pKd 3.1 to 4
# Details: plain residues with an end cap or a label only (N-terminal biotin on a linker: ado-ado)
row,pKd,Binder
1,below the threshold,B2
2,below the threshold,B1

# Molecular target: PTPN3, P26045
# Assay: holdup assay
# Set-up: key: below the threshold = too weak to quantify, mostly under pKd 3.1 to 4
# Details: plain residues with an end cap or a label only (N-terminal biotin on a linker: ado-ado)
# Chain of PTPN3, P26045 (P26045 505-587): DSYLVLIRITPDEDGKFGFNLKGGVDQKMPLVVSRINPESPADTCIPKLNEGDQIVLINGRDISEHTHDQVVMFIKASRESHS
row,pKd,Binder
1,3.92,B1

# Molecular target: MAGI2_4, Q86UL8
# Assay: holdup assay
# Set-up: key: below the threshold = too weak to quantify, mostly under pKd 3.1 to 4
# Details: plain residues with an end cap or a label only (N-terminal biotin on a linker: ado-ado)
# Chain of MAGI2_4, Q86UL8 (Q86UL8 772-865): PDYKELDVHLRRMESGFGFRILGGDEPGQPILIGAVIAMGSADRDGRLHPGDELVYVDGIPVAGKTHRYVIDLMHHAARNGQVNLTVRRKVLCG
row,pKd,Binder
1,below the threshold,B2
2,below the threshold,B1

# Molecular target: Inadl_5, Q8NI35
# Assay: holdup assay
# Set-up: key: below the threshold = too weak to quantify, mostly under pKd 3.1 to 4
# Details: plain residues with an end cap or a label only (N-terminal biotin on a linker: ado-ado)
# Chain of Inadl_5, Q8NI35 (Q8NI35 673-780): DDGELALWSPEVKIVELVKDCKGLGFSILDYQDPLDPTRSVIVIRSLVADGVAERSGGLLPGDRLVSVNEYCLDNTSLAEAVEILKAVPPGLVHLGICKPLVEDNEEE
row,pKd,Binder
1,below the threshold,B2
2,3.48,B1

# Molecular target: T12, PTPN13_1, Q12923
# Assay: holdup assay
# Set-up: key: below the threshold = too weak to quantify, mostly under pKd 3.1 to 4
# Details: plain residues with an end cap or a label only (N-terminal biotin on a linker: ado-ado)
row,pKd,Binder
1,below the threshold,B2
2,3.7,B1
